biological target: HLA-B*44:05 (Homo sapiens, UniProt P01889, A223V/A65T/A93T/A95T/D201E/D98Y/E176V/E187L/E204Q/E69K/G107R/H137Y/K202T/L105A/L119I/N104T/N87E/Q56L/Q94N/R106L/R155S/R180D/S101N/S121R/S35A/S48T/T118I/V36M/W191S/Y91S); experiment: MHC binding assay (UV-ligand exchange, β2m ELISA, peptide exchange yield); conditions: binding to HLA-B*44:05
From the text: Candidate peptides for T cell-based therapies according to the present invention were further tested for their MHC binding capacity (affinity). The individual peptide-MHC complexes were produced by UV-ligand exchange, where a UV-sensitive peptide is cleaved upon UV-irradiation and exchanged with the peptide of interest as analyzed. Only peptide candidates that can effectively bind and stabilize the peptide-receptive MHC molecules prevent dissociation of the MHC complexes. To determine the yield of the exchange reaction, an ELISA was performed based on the detection of the light chain (β2m) of stabilized MHC complexes. The assay was performed as generally described in Rodenko et al. (Rodenko et al., 2006)
96 well MAXISorp plates (NUNC) were coated over night with 2 μg/ml streptavidin in PBS at room temperature, washed 4× and blocked for 1 h at 37° C. in 2% BSA containing blocking buffer. Refolded HLA-A*02:01/MLA-001 monomers served as standards, covering the range of 15-500 ng/ml. Peptide-MHC monomers of the UV-exchange reaction were diluted 100-fold in blocking buffer. Samples were incubated for 1h at 37° C., washed four times, incubated with 2 μg/ml HRP conjugated anti-β2m for 1h at 37° C., washed again and detected with TMB solution that is stopped with […]. Absorption was measured at 450 nm.

Row | Substance | Peptide exchange (MHC class I binding score, peptide exchange yield)
1 | 182 (EELHAALSEW; listed as Homo sapiens) [compound 182] | ++++ (>75% = ++++)
2 | 173 (SEHSLEGQKF; listed as Homo sapiens) [compound 173] | +++ (>50 = +++)
3 | 93 (SEAGLTANQY; listed as Homo sapiens) [compound 93] | +++ (>50 = +++)
4 | 376 (SESDGIEQL; listed as Homo sapiens) [compound 376] | +++ (>50 = +++)
5 | 212 (SEASVYLFRF; listed as Homo sapiens) [compound 212] | +++ (>50 = +++)
6 | 283 (VEEEISRHY; listed as Homo sapiens) [compound 283] | ++ (>20% = ++)
7 | 333 (SEGTLPYSY; listed as Homo sapiens) [compound 333] | ++ (>20% = ++)
8 | 396 (MELLFLDTF; listed as Homo sapiens) [compound 396] | ++ (>20% = ++)
9 | 129 (EEAMKRLSY; listed as Homo sapiens) [compound 129] | ++ (>20% = ++)
10 | 410 (RELEEEFYSL; listed as Homo sapiens) [compound 410] | +++ (>50 = +++)
11 | 251 (DESADSEPHKY; listed as Homo sapiens) [compound 251] | + (>10% = +)
12 | 121 (YENIPVDKV; listed as Homo sapiens) [compound 121] | +++ (>50 = +++)
13 | 103 (AELFLTKSF; listed as Homo sapiens) [compound 103] | ++++ (>75% = ++++)
14 | 253 (QEILHGAVRF; listed as Homo sapiens) [compound 253] | +++ (>50 = +++)
15 | 345 (AEYQAAILHL; listed as Homo sapiens) [compound 345] | +++ (>50 = +++)
16 | 149 (AETEPERHLG; listed as Homo sapiens) [compound 149] | ++ (>20% = ++)
17 | 118 (SEVPVDSHYY; listed as Homo sapiens) [compound 118] | +++ (>50 = +++)
18 | 323 (SETAVVNVTY; listed as Homo sapiens) [compound 323] | ++++ (>75% = ++++)
19 | 160 (AEIATTGQLY; listed as Homo sapiens) [compound 160] | +++ (>50 = +++)
20 | 319 (YEWEPFAEV; listed as Homo sapiens) [compound 319] | + (>10% = +)
21 | 135 (QEIDRGQYI; listed as Homo sapiens) [compound 135] | ++++ (>75% = ++++)

Row | Substance | Peptide exchange (MHC class I binding score, peptide exchange yield)
22 | 339 (NEVKEIKGY; listed as Homo sapiens) [compound 339] | +++ (>50 = +++)
23 | 64 (EEYQDSFERY; listed as Homo sapiens) [compound 64] | ++ (>20% = ++)
24 | 375 (HEATFGEKRF; listed as Homo sapiens) [compound 375] | +++ (>50 = +++)
25 | 115 (QEPFTRPVL; listed as Homo sapiens) [compound 115] | +++ (>50 = +++)
26 | 266 (EEEDRDGHTW; listed as Homo sapiens) [compound 266] | +++ (>50 = +++)
27 | 153 (IEIILLSGSL; listed as Homo sapiens) [compound 153] | ++++ (>75% = ++++)
28 | 165 (EEIEAHIAL; listed as Homo sapiens) [compound 165] | +++ (>50 = +++)
29 | 256 (RLLPGKVVW; listed as Homo sapiens) [compound 256] | ++ (>20% = ++)
30 | 393 (SETILAVGL; listed as Homo sapiens) [compound 393] | +++ (>50 = +++)
31 | 364 (EECDKAYSF; listed as Homo sapiens) [compound 364] | ++ (>20% = ++)
32 | 361 (EDASLMGLY; listed as Homo sapiens) [compound 361] | ++ (>20% = ++)
33 | 190 (NEAGEVSKHF; listed as Homo sapiens) [compound 190] | +++ (>50 = +++)
34 | 360 (DEMENLLTY; listed as Homo sapiens) [compound 360] | ++++ (>75% = ++++)
35 | 366 (EECGKAFKKF; listed as Homo sapiens) [compound 366] | +++ (>50 = +++)
36 | 155 (TEDARHPESW; listed as Homo sapiens) [compound 155] | ++++ (>75% = ++++)
37 | 379 (AENRVGKMEA; listed as Homo sapiens) [compound 379] | ++ (>20% = ++)
38 | 348 (SEVLLTSISTF; listed as Homo sapiens) [compound 348] | ++++ (>75% = ++++)
39 | 271 (REDLVGPEV; listed as Homo sapiens) [compound 271] | +++ (>50 = +++)
40 | 145 (EELRMLSF; listed as Homo sapiens) [compound 145] | ++ (>20% = ++)
41 | 46 (SELGLPKEV; listed as Homo sapiens) [compound 46] | ++ (>20% = ++)
42 | 274 (DEIDKLTGY; listed as Homo sapiens) [compound 274] | ++ (>20% = ++)

Row | Substance | Peptide exchange (MHC class I binding score, peptide exchange yield)
43 | 297 (DEYLIPQQGFF; listed as Homo sapiens) [compound 297] | ++ (>20% = ++)
44 | 130 (REYQEVMNSKL; listed as Homo sapiens) [compound 130] | +++ (>50 = +++)
45 | 378 (QELFLQEVRM; listed as Homo sapiens) [compound 378] | +++ (>50 = +++)
46 | 184 (EEQLLQKVM; listed as Homo sapiens) [compound 184] | ++++ (>75% = ++++)
47 | 205 (MEIEGAGNFL; listed as Homo sapiens) [compound 205] | ++++ (>75% = ++++)
48 | 211 (LEMLDAHRL; listed as Homo sapiens) [compound 211] | +++ (>50 = +++)
49 | 221 (KEAFGPQAL; listed as Homo sapiens) [compound 221] | ++++ (>75% = ++++)
50 | 164 (DEDGKIVGY; listed as Homo sapiens) [compound 164] | ++ (>20% = ++)
51 | 108 (QETNKVETY; listed as Homo sapiens) [compound 108] | +++ (>50 = +++)
52 | 225 (VEAATVSKW; listed as Homo sapiens) [compound 225] | +++ (>50 = +++)
53 | 269 (SEDLAVHL; listed as Homo sapiens) [compound 269] | ++++ (>75% = ++++)
54 | 264 (RELIKAIGL; listed as Homo sapiens) [compound 264] | +++ (>50 = +++)
55 | 411 (AERDLNVTI; listed as Homo sapiens) [compound 411] | +++ (>50 = +++)
56 | 313 (EEINQGGRKY; listed as Homo sapiens) [compound 313] | +++ (>50 = +++)
57 | 91 (EESLLSSWDF; listed as Homo sapiens) [compound 91] | +++ (>50 = +++)
58 | 285 (AEHPDFSPCSF; listed as Homo sapiens) [compound 285] | +++ (>50 = +++)
59 | 191 (AEHDMKSVL; listed as Homo sapiens) [compound 191] | +++ (>50 = +++)
60 | 385 (LEHPFLVNLW; listed as Homo sapiens) [compound 385] | ++++ (>75% = ++++)
61 | 399 (IEQADWPEI; listed as Homo sapiens) [compound 399] | ++ (>20% = ++)
62 | 2 (EEFLRPRSL; listed as Homo sapiens) [compound 2] | ++ (>20% = ++)
63 | 111 (QEIDQKRLEF; listed as Homo sapiens) [compound 111] | ++ (>20% = ++)
